Results from PMC12266122 (2025).

B1: FLAG-TSC22D2 (full length, wild type) [human] / HA-NRBP1 WT [human] (parent complex)
chain 1: MSKMPAKKKSCFQITSVTTAQVATSITEDTESLDDPDESRTEDVSSEIFDVSRATDYGPEEVCERSSSEETLNNVGDAETPGTVSPNLLLDGQLAAAAAAPANGGGVVSARSVSGALASTLAAAATSAPAPGAPGGPQLAGSSAGPVTAAPSQPPTTCSSRFRVIKLDHGSGEPYRRGRWTCMEYYERDSDSSVLTRSGDCIRHSSTFDQTAERDSGLGATGGSVVVVVASMQGAHGPESGTDSSLTAVSQLPPSEKMSQPTPAQPQSFSVGQPQPPPPPVGGAVAQSSAPLPPFPGAATGPQPMMAAAQPSQPQGAGPGGQTLPPTNVTLAQPAMSLPPQPGPAVGAPAAQQPQQFAYPQPQIPPGHLLPVQPSGQSEYLQQHVAGLQPPSPAQPSSTGAAASPATAATLPVGTGQNASSVGAQLMGASSQPSEAMAPRTGPAQGGQVAPCQPTGVPPATVGGVVQPCLGPAGAGQPQSVPPPQMGGSGPLSAVPGGPHAVVPGVPNVPAAVPAPSVPSVSTTSVTMPNVPAPLAQSQQLSSHTPVSRSSSIIQHVGLPLAPGTHSAPTSLPQSDLSQFQTQTQPLVGQVDDTRRKSEPLPQPPLSLIAENKPVVKPPVADSLANPLQLTPMNSLATSVFSIAIPVDGDEDRNPSTAFYQAFHLNTLKESKSLWDSASGGGVVAIDNKIEQAMDLVKSHLMYAVREEVEVLKEQIKELVERNSLLERENALLKSLSSNDQLSQLPTQQANPGSTSQQQAVIAQPPQPTQPPQQPNVSSA
chain 2: not shown

Variants of: B1
Assay: co-immunoprecipitation (HA-IP) with immunoblot densitometry; HEK293 cells stably expressing HA-NRBP1, 36 hours after transfection; N = 2, n = 2; read off a plot

With chain 1 R161A as the variant, how does the response read?
Its response is about 0.76.

Which response does the source give for chain 1 R161E, chain 1 F162A, chain 1 R179E here?
Its response is about 0.02.

How did the response turn out when chain 1 R179E was run?
Its response is about 0.09.

chain 1 R161A, chain 1 F162A was tested. Which response did it give?
The response was about 0.35.

For chain 1 R179A, which response is on record?
The response was about 0.22.
